Laboratory results taken from US20220411483A1 (Chugai, published 2022).
Changes are numbered by the printed parent chain.

B1: IL6R-P591/IL6R-L (antibody, human IgG1, kappa)
heavy: QVQLQESGPGLVKPSETLSLTCAVSGHSISHDHAWSWVRQPPGEGLEWIGFISYSGITNYNPSLQGRVTISRDNSKNTLYLQMNSLRAEDTAVYYCARSLARTTAMDYWGEGTLVTVSSASTKGPSVFPLAPSSKSTSGGTAALGCLVKDYFPEPVTVSWNSGALTSGVHTFPAVLQSSGLYSLSSVVTVPSSSLGTQTYICNVNHKPSNTKVDKKVEPKSCDKTHTCPPCPAPELLGGDSVMLFPPKPKDTLMISRTPEVTCVVVDVSHEDPEVKFNWYVDGVEVHNAKTKPREEQENSTYRVVSVLTVLHQDWLNGKEYKCKVSNKALPAPIEKTISKAKGQPREPQVYTLPPSRDELTKNQVSLTCLVKGFYPSDIAVEWESNGQPENNYKTTPPVLDSDGSFFLYSKLTVDKSRWQQGNVFSCSVMHEALHNHYTQKSLSLSP
light: not shown
B2: IL6R-P603/IL6R-L (antibody, human IgG1, kappa)
heavy: B1 heavy with V325I
light: not shown
B3: IL6R-P602/IL6R-L (antibody, human IgG1, kappa)
heavy: B1 heavy with Q297V
light: not shown
B4: IL6R-BP568/IL6R-L (antibody, human IgG1, kappa, name in EU numbering)
heavy: B1 heavy with E235D, M243F, V266I, S269A, H270E, P273G, E298Y, K441E
light: not shown
notes: human IgG1
B5: IL6R-BP504/IL6R-L (antibody, human IgG1, kappa, name in EU numbering)
heavy: B1 heavy with E235D, G239D, M243F, V266I, S269A, H270E, P273G, E274P, E298Y, K441E
light: not shown
notes: human IgG1
B6: IL6R-BP560/IL6R-L (antibody, human IgG1, kappa, name in EU numbering)
heavy: B1 heavy with M243F, S269G, H270E, P273G, E298D, A332R, K441E
light: not shown
notes: human IgG1
B7: IL6R-BP505/IL6R-L (antibody, human IgG1, kappa, name in EU numbering)
heavy: B1 heavy with E235D, G239D, M243F, V266I, S269A, H270E, P273G, E274D, E298Y, K441E
light: not shown
notes: human IgG1
B8: IL6R-BP509/IL6R-L (antibody, human IgG1, kappa, name in EU numbering)
heavy: B1 heavy with E235D, G239D, M243F, V266I, S269A, H270E, P273G, E274D, E298D, K441E
light: not shown
notes: human IgG1
B9: IL6R-BP492/IL6R-L (antibody, human IgG1, kappa, name in EU numbering)
heavy: B1 heavy with M243F, V266I, S269A, H270E, P273G, E298Y, K441E
light: not shown
notes: human IgG1
B10: IL6R-BP508/IL6R-L (antibody, human IgG1, kappa, name in EU numbering)
heavy: B1 heavy with E235D, G239D, M243F, V266I, S269A, H270E, P273G, E274P, E298D, K441E
light: not shown
notes: human IgG1
B11: IL6R-BP549/IL6R-L (antibody, human IgG1, kappa, name in EU numbering)
heavy: B1 heavy with G239D, M243F, S269G, H270E, P273G, E298Y, A332R, K441E
light: not shown
notes: human IgG1
B12: IL6R-BP567/IL6R-L (antibody, human IgG1, kappa, name in EU numbering)
heavy: B1 heavy with E235D, M243F, V266I, S269A, H270E, P273G, E298D, K441E
light: not shown
notes: human IgG1
B13: IL6R-BP564/IL6R-L (antibody, human IgG1, kappa, name in EU numbering)
heavy: B1 heavy with G239D, M243F, H270E, P273G, E274D, E298D, A332R, K441E
light: not shown
notes: human IgG1
B14: IL6R-BP500/IL6R-L (antibody, human IgG1, kappa, name in EU numbering)
heavy: B1 heavy with G239D, M243F, V266I, S269A, H270E, P273G, E298D, K441E
light: not shown
notes: human IgG1
B15: IL6R-BP494/IL6R-L (antibody, human IgG1, kappa, name in EU numbering)
heavy: B1 heavy with G239D, M243F, S269A, H270E, P273G, E298D, A332R, K441E
light: not shown
notes: human IgG1
B16: IL6R-BP562/IL6R-L (antibody, human IgG1, kappa, name in EU numbering)
heavy: B1 heavy with G239D, M243F, H270D, P273G, E274D, E298D, A332R, K441E
light: not shown
notes: human IgG1
B17: IL6R-BP559/IL6R-L (antibody, human IgG1, kappa, name in EU numbering)
heavy: B1 heavy with M243F, V266I, S269A, H270E, P273G, E274D, E298D, K441E
light: not shown
notes: human IgG1
B18: IL6R-P662/IL6R-L (antibody, human IgG1, kappa)
heavy: B1 heavy with M243F, E298D, S300A, S326N
light: not shown
B19: IL6R-P663/IL6R-L (antibody, human IgG1, kappa)
heavy: B1 heavy with M243F, E298D, S300A, A332H
light: not shown

target: T1, FcγRIIIa V type extracellular domain, His tag (human, UniProt P08637 17-208); test: SPR, KD ratio
T1 construct: extracellular domain; also called FcgRIIIaV
T1 sequence (P08637 17-208 F176V): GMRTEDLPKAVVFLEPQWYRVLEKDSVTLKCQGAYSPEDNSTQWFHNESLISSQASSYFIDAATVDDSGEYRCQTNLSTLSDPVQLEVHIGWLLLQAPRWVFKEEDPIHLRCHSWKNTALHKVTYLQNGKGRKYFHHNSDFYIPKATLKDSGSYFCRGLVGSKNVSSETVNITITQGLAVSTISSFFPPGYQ

Row | Binder | Relative FcgRIIIaV-binding Activity
1 | B1 | 0.008 fold of IL6R-G1d/IL6R-L
2 | B2 | 0.004 fold of IL6R-G1d/IL6R-L
3 | B3 | 0.006 fold of IL6R-G1d/IL6R-L

target: T2, FcγRIIb extracellular domain, His tag (human, UniProt P31994 43-217); test: SPR, KD ratio
T2 construct: extracellular domain; also called FcgRIIb
T2 sequence (looked up): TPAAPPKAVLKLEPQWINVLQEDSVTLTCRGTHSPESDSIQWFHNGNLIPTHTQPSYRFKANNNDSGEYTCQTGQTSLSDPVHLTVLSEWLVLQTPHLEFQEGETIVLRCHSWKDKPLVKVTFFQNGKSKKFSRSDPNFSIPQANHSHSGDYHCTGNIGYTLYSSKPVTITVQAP

Row | Binder | Relative FcgRIIb-binding Activity
4 | B1 | 1.65 fold of IL6R-G1d/IL6R-L
5 | B2 | 1.9 fold of IL6R-G1d/IL6R-L
6 | B3 | 2.13 fold of IL6R-G1d/IL6R-L

target: T3, FcγRIIa R type extracellular domain, His tag (human, UniProt P12318 34-217); test: SPR, KD ratio
T3 construct: extracellular domain; also called FcgRIIaR
T3 sequence (looked up): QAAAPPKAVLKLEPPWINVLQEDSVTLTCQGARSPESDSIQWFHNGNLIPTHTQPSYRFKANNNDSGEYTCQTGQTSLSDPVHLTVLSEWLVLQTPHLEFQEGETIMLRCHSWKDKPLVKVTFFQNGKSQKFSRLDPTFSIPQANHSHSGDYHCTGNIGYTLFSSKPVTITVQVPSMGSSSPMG

Row | Binder | Relative FcgRIIaR-binding Activity
7 | B1 | 0.034 fold of IL6R-G1d/IL6R-L
8 | B2 | 0.026 fold of IL6R-G1d/IL6R-L
9 | B3 | 0.028 fold of IL6R-G1d/IL6R-L

target: T4, FcγRIa extracellular domain, His tag (human, UniProt P12314 16-292); test: SPR, KD ratio
T4 construct: whole entry named; also called FcgRIa
T4 sequence (P12314 16-292): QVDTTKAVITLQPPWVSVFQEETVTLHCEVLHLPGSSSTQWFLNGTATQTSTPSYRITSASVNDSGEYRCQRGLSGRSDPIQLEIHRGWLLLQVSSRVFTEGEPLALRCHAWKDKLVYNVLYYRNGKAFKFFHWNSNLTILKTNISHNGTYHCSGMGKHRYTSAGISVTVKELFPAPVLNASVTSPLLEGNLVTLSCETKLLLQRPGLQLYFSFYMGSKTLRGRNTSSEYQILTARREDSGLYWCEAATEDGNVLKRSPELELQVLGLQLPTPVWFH

Row | Binder | Relative FcgRIa-binding Activity
10 | B1 | 0.0138 fold of IL6R-G1d/IL6R-L
11 | B2 | 0.015 fold of IL6R-G1d/IL6R-L
12 | B3 | 0.0174 fold of IL6R-G1d/IL6R-L

target: T5, FcγRIIa H type extracellular domain, His tag (human, UniProt P12318 34-217); test: SPR, KD ratio
T5 construct: extracellular domain; also called FcgRIIaH
T5 sequence (looked up): T3 sequence (looked up) with R134H

Row | Binder | Relative FcgRIIaH-binding Activity
13 | B1 | 0.011 fold of IL6R-G1d/IL6R-L
14 | B2 | 0.009 fold of IL6R-G1d/IL6R-L
15 | B3 | 0.01 fold of IL6R-G1d/IL6R-L

target: T6, FcγRIIa R type extracellular domain with C-terminal His tag (human, UniProt P12318 34-217); test: SPR, antibody captured, FcgR analyte
T6 construct: extracellular domain; also called FcgRIIaR; not shown: His tag at the C terminus
T6 sequence (looked up): T3 sequence (looked up)

Row | Binder | Kd
16 | B4 | 680 nM
17 | B5 | 450 nM
18 | B6 | 4200 nM
19 | B7 | 430 nM
20 | B8 | 520 nM
21 | B9 | 920 nM
22 | B10 | 540 nM
23 | B11 | 570 nM
24 | B12 | 890 nM
25 | B13 | 580 nM
26 | B14 | 720 nM
27 | B15 | 250 nM
28 | B16 | 680 nM
29 | B17 | 1600 nM

target: T7, FcγRIa extracellular domain with C-terminal His tag (human, UniProt P12314 16-292); test: SPR, antibody captured, FcgR analyte
T7 construct: also called FcgRIa; CD64; not shown: His tag at the C terminus
T7 sequence (P12314 16-292): as above

Row | Binder | Kd
30 | B4 | 0.19 nM
31 | B5 | 1.4 nM
32 | B6 | 5.6 nM
33 | B7 | 1.1 nM
34 | B8 | 1.1 nM
35 | B9 | 0.79 nM
36 | B10 | 1.4 nM
37 | B11 | 18 nM
38 | B12 | 0.21 nM
39 | B13 | 31 nM
40 | B14 | 2.3 nM
41 | B15 | 3.9 nM
42 | B16 | 25 nM
43 | B17 | 1.1 nM

target: T8, FcγRIIb extracellular domain with C-terminal His tag (human, UniProt P31994 43-217); test: SPR, antibody captured, FcgR analyte
T8 construct: extracellular domain; also called FcgRIIb; not shown: His tag at the C terminus
T8 sequence (looked up): T2 sequence (looked up)

Row | Binder | Kd
44 | B4 | 15 nM
45 | B5 | 24 nM
46 | B6 | 180 nM
47 | B7 | 21 nM
48 | B8 | 18 nM
49 | B9 | 24 nM
50 | B10 | 21 nM
51 | B11 | 16 nM
52 | B12 | 14 nM
53 | B13 | 22 nM
54 | B14 | 24 nM
55 | B15 | 6.6 nM
56 | B16 | 24 nM
57 | B17 | 28 nM

target: T2, FcγRIIb extracellular domain, His tag; test: SPR, bound amount per captured antibody

Row | Binder | Relative FcgRIIb-binding Activity
58 | B1 | 131 % of IL6R-G1d/IL6R-L
59 | B2 | 130 % of IL6R-G1d/IL6R-L
60 | B3 | 112 % of IL6R-G1d/IL6R-L
61 | B18 | 73.3 % of IL6R-G1d/IL6R-L
62 | B19 | 79.7 % of IL6R-G1d/IL6R-L

target: T3, FcγRIIa R type extracellular domain, …; test: SPR, bound amount per captured antibody

Row | Binder | Relative FcgRIIaR-binding Activity
63 | B1 | 20 % of IL6R-G1d/IL6R-L
64 | B2 | 16.9 % of IL6R-G1d/IL6R-L
65 | B3 | 18.1 % of IL6R-G1d/IL6R-L
66 | B18 | 11.2 % of IL6R-G1d/IL6R-L
67 | B19 | 10.1 % of IL6R-G1d/IL6R-L

target: T6, FcγRIIa R type extracellular domain …; test: SPR; KD of IL6R-B3/IL6R-L divided by KD of variant

Row | Binder | Relative FcgRIIaR-binding Activity
68 | B4 | 1.6
69 | B5 | 2.4
70 | B6 | 0.3
71 | B7 | 2.5
72 | B8 | 2.1
73 | B9 | 1.2
74 | B10 | 2
75 | B11 | 1.9
76 | B12 | 1.2
77 | B13 | 1.9
78 | B14 | 1.5
79 | B15 | 4.3
80 | B16 | 1.6
81 | B17 | 0.7

target: T8, FcγRIIb extracellular domain with …; test: SPR; KD of IL6R-B3/IL6R-L divided by KD of variant

Row | Binder | Relative FcgRIIb-binding Activity
82 | B4 | 210
83 | B5 | 127
84 | B6 | 16.8
85 | B7 | 144
86 | B8 | 174
87 | B9 | 131
88 | B10 | 149
89 | B11 | 196
90 | B12 | 224
91 | B13 | 140
92 | B14 | 128
93 | B15 | 470
94 | B16 | 131
95 | B17 | 110
